{"source": "the nanobody polyreactivity screen of Harvey et al. (2022)", "data": [{"experiment": "yeast display, Sf9 membrane polyspecificity reagent, FACS + sequencing; frameworks hold sequencing errors", "summary_of_the_method": "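A synthetic nanobody library was expressed on Saccharomyces cerevisiae BJ5465 by galactose induction for 36–48 hours. The library was stained for 1 hour at 4 °C with 10% biotinylated, detergent-solubilized Sf9 membrane reagent and enriched with streptavidin microbeads before FACS. Low and high (top ~1%) gates were set on anti-HA fluorescence for expression and streptavidin fluorescence for reagent binding, and each polyreactivity label reflects the gate of origin.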", "values": [{"sequence": "QVQLVESGGGLVHAGGSLRLSCAASGSTFYSNVMGWYRQAPGKERELVAAISRSGGSTYYADSVKGRFTISRDNAKNTVYLQMNSLKAEDTAVYYCNRLRAPVRGDYWGQGTQVTVSS", "polyreactivity (PSR sort gate)": "high polyreactivity"}, {"sequence": "QVQLVESGGGLVHAGGSLRLSCAASGYTFDSYTMGWYRQAPGKERELVAAISGRGGSTYYADSVKGRFTISRDNAKNTVYIQMNSLKPEDTAVYYCNTYPPIGYDYWGQGTQVTVSS", "polyreactivity (PSR sort gate)": "low polyreactivity"}, {"sequence": "QVQLVESGGGLVHAGGSLRLSCAASGYTFPLYAMGWYRQAPGKERELVADINIGGASTYYADSVKGRFTISRDNAKNTVYLQMNSLKPEDTAVYYCAKEYYDGYFPTFDYDYWGQGTQVTVSS", "polyreactivity (PSR sort gate)": "low polyreactivity"}, {"sequence": "QVQLVESGGGLVHAGGSLRLSCAASGYTFPLYAMGWYRQAPGKERELVAGINWRGGSTYYADSVKCRFTISRDNAKNTVYLQIKSLKPEDTAVYYCAADFSRYYTGGYDYWGQGTQVTVSS", "polyreactivity (PSR sort gate)": "low polyreactivity"}, {"sequence": "QVQLVESGGGLVHAGGSLRLSCAASGYTFQAYAMGWYRQPPGKERELVAAISFSSGSTYYADSVKGRFTISRDNAKNTVYLQMNSLKPEDTAVYDCATDNWSVNGGYNYWGQGTQVTVSS", "polyreactivity (PSR sort gate)": "low polyreactivity"}, {"sequence": "QVQLVESGGGLVHAGGSLRLSCAAYGSIFSKYVMGGSREAPGKERELVAAISWSGTRTYYADSVMGRFTISRDNAKNTVYLQMNSLKPEDTAVYYCAARRLYSGHQYDYWGQGTQVTVSS", "polyreactivity (PSR sort gate)": "high polyreactivity"}, {"sequence": "QVQLVESGGGLVHAGGSLRLSCAAYGSIFYSYAMGWYRQAPGKERELVAAITSVGNTNYADSVKGRFTISRDNAKNTVYLQMNSLKPEDTAVYYYWGQGTQVTVSS", "polyreactivity (PSR sort gate)": "low polyreactivity"}, {"sequence": "QVQLVESGGGLVHAGGSLRLSCADSGSTLGSNAMGWYRQAPGKERELVAAITWSGGTTYYADSVKGRFTISRDNAKNTVYLQMNSLKPEDTAVYYCATGQSVIYRYEYWGQGTQVTVSS", "polyreactivity (PSR sort gate)": "low polyreactivity"}, {"sequence": "QVQLVESGGGLVHAGGSLRLSCAPSGRTFPRYAMGWYRQAPGKERELVAAISVRAGITYYADSVKGRFTISRDNAKNTVYLQMNSLKPEDTAVYYCDKEHSSTSYDEGDYWGQGTQVTVSS", "polyreactivity (PSR sort gate)": "low polyreactivity"}, {"sequence": "QVQLVESGGGLVHAGGSLRLSCASSGSALFWNAMGWYRQAPGKERELVATITNSGGSTYYADSVKGRFTISRDNAKNTVYLQMNSLKPEDTAVYYCNADESAYWKLRHGLGSDSWGQGTQVTVSS", "polyreactivity (PSR sort gate)": "low polyreactivity"}, {"sequence": "QVQLVESGGGLVHAGGSLRLSCDASGIIFFIYTMGWYRQAPGKERELVAVITRGGRTNYADSVKGRFTISRDNAKNTVYLQMNSLKPEDTAVYYCAAKGSRSYYWGQGTQVNVSS", "polyreactivity (PSR sort gate)": "high polyreactivity"}, {"sequence": "QVQLVESGGGLVHAGGSLRLSCDASGITFGPYGMGWYRQAHGKEREFVATITTIGGITYYADSVKGRFTISRDNAKNTFYLQMNSLKPEDTAVYYCAAPWFHGYDALVDYWGQGTQVTVSS", "polyreactivity (PSR sort gate)": "low polyreactivity"}, {"sequence": "QVQLVESGGGLVHAGGTLRLSCAASGGIFYHYTMGWYRQAPGKERELVASIRVSGGRTYNADSVTGRFTISRDNAKNTVYLQMNSLKPQDSAVYFCNARGSWYQPTYDYWGQGTQVTVSS", "polyreactivity (PSR sort gate)": "high polyreactivity"}, {"sequence": "QVQLVESGGGLVHEGGSLRLSFAASGPTFYRYTMGWYRQAPGKERELVATITGGGSTNYADSVKGRFTISRDNAKNTVYLQMNSLKPEDTAVYYCARAVVQSRGPPRYKTPYDYWGQGTQVTVSS", "polyreactivity (PSR sort gate)": "low polyreactivity"}, {"sequence": "QVQLVESGGGLVKAGGILRLICVASGRTFLRYGMGWYRQAPGKERELVAAISIVGNTYYADSVKGRFTISRDNAKNTVYLQMNSLKPEDTAVYYCAAGRRFGRDYWGQGTQVTVSS", "polyreactivity (PSR sort gate)": "high polyreactivity"}, {"sequence": "QVQLVESGGGLVKAGGILRLSCAASGSTFWKYAMGWYRQAPGKERELVAAINSGGSTYYADSVKGRFTISRDNAKNTVYLQMNSLKPEDTAVYYCAAVYVDRRKRSYYWGQGTQVTVSS", "polyreactivity (PSR sort gate)": "high polyreactivity"}, {"sequence": "QVQLVESGGGLVKAGGRLRLSSAASGSIFASYSIGWYRQAPWKERELVAAITVRGGRTYYADSVKGRFTISRDNAKNTVYLQMNSLKPEDTAVYYCAAVGKNRSWYDYWGQGTQVTVSS", "polyreactivity (PSR sort gate)": "high polyreactivity"}, {"sequence": "QVQLVESGGGLVKAGGSLRFSCAASGSIFHPYELGWKTQAPRKESDLVAGISRSGTSTYYADSVKGRFTISRDNAKNTVYLQMNSLKPEDTAVYYCYKVLVGSNRGEYDYWGQGTQVTVSS", "polyreactivity (PSR sort gate)": "low polyreactivity"}, {"sequence": "QVQLVESGGGLVKAGGSLRLSCAASGFIFKRNVMGWYRQAPGKETELVARISSRGGSTYYADSVKGRFTISRDNAKNTVYLQMNSLKPEDTEVYYCAADFGTIRVYSGDYWGQGTQVTVSS", "polyreactivity (PSR sort gate)": "high polyreactivity"}, {"sequence": "QVQLVESGGGLVKAGGSLRLSCAASGFIFTQNAMGWYRQAPGKERELVAAISGTGGSTYYADSVKGRFTISRDNAKNTVYLQMNSLKPEDTAVYYCAARRRQEHVGRSSYARYDYWGQGTQVTVSS", "polyreactivity (PSR sort gate)": "high polyreactivity"}, {"sequence": "QVQLVESGGGLVKAGGSLRLSCAASGFISSSYAMGWYRQAPGKERELVAVITRSGGSTYYADSVKGRFTISRDNAKNTVYLQMNSLKPEDTGVYYCNTDARSKKYIFDFDYWGQGTQVTVSS", "polyreactivity (PSR sort gate)": "high polyreactivity"}, {"sequence": "QVQLVESGGGLVKAGGSLRLSCAASGFTIVYYAMGWYIQAPGKERELVAAISATGGRTYYADSVKGRFTISRDNAKNTVYLQMNSLKPEDTAVYYCATRRRVLYGYDYWGQGTQVTVSS", "polyreactivity (PSR sort gate)": "high polyreactivity"}, {"sequence": "QVQLVESGGGLVKAGGSLRLSCAASGLTFAINTMGWYRQSRGKERELVAAITGSGGSTYYADSVKGRFTISRDNAKNTVYLQMNSLKPEDSAVYYCAAELLYVQGYAMDYWGQGTQVTVSS", "polyreactivity (PSR sort gate)": "low polyreactivity"}, {"sequence": "QVQLVESGGGLVKAGGSLRLSCAASGRIFGYYAMGLDRQAPGQERELFAAITWSGGRTYYADSVKGRFTISRDNAKNTVYLQMKSLKPEDTAVYYCAAKTLGQQRKFDYWGQGTQVTVSS", "polyreactivity (PSR sort gate)": "high polyreactivity"}, {"sequence": "QVQLVESGGGLVKAGGSLRLSCAASGRTFLRNAMGWYRPAPGKERELVATITRGGSTYYADSVKGRFTISRDNAKNTVYLQMNSLKPEDTAVYYCAKDITGGFRRPDYGYWGQGTQVTVSS", "polyreactivity (PSR sort gate)": "low polyreactivity"}, {"sequence": "QVQLVESGGGLVKAGGSLRLSCAASGRTFSSNAMGWNRQAPGKERELVAAISSSGAGTYYADSVKGRFTISRDNAKNTVYFQMTILKPEDSAVYYCAARANSYHSFTSPYDYWGQGTQVTVSS", "polyreactivity (PSR sort gate)": "low polyreactivity"}, {"sequence": "QVQLVESGGGLVKAGGSLRLSCAASGSIFPDNAMGWYRQAPGKERELVAAISEGSTSTYYADSVKGRFTISRDNAKYTVYLQMNSLKPEDTAVYYCAADYDTGYEYWGQGTQVTVSS", "polyreactivity (PSR sort gate)": "low polyreactivity"}, {"sequence": "QVQLVESGGGLVKAGGSLRLSCAASGSIFPYNAMGWYRQAPGKERELVATISSGGSTNYADSVKGRFTISRDNAKNTVYLQMNSMKPEDTAVYYCAADVSVFYYAPNYWGDIEYGYWGQGTQVTVSS", "polyreactivity (PSR sort gate)": "low polyreactivity"}, {"sequence": "QVQLVESGGGLVKAGGSLRLSCAASGSIIKRYAMGWYRQARGKERELVAAITQSGGRTYYADSVKGRFTISRDNAKNTVYLQMNSLKPEDTAVYYCNAVRWYLYDYWGQGTQVTVSS", "polyreactivity (PSR sort gate)": "high polyreactivity"}, {"sequence": "QVQLVESGGGLVKAGGSLRLSCAASGSIITIYAMGWYRQAPGKERDWVATITGGGGSTYYADSVKGRFTISRDNAKNTVYFKMNSLKPEETAVYYCAADSPGWSYTSRSYDYWGQGTQVTVSS", "polyreactivity (PSR sort gate)": "low polyreactivity"}, {"sequence": "QVQLVESGGGLVKAGGSLRLSCGASGSIFDFYVMGWYRQAPGKERELVGAISSGGSTYYADSVKGRFTISRDNAKHTVYVQMNSLKPADTAVYYCAAYPEYVSGAWYDYWGQGTQVTVSS", "polyreactivity (PSR sort gate)": "low polyreactivity"}, {"sequence": "QVQLVESGGGLVKAGGSLRLSSAASGRILYGNAMGGYRQAPGKERELVAANTRRGGSTYYADSVKGRFTISRDNAKNTVSLQMNSLKPEDTAVYYCAASRYTSYYKDGCYAYYYWGQGTQVTVSS", "polyreactivity (PSR sort gate)": "high polyreactivity"}, {"sequence": "QVQLVESGGGLVKEGGSLRLSCAASGNTIRVNAMGWYRQAPGKERELVAAISFSGGRTYYADSVKGRFTISRDNAKNTVYFQMNSLKPEDTGVYYCAALRRYPRPFIYGYWGQVTQVTVSS", "polyreactivity (PSR sort gate)": "low polyreactivity"}, {"sequence": "QVQLVESGGGLVKEGGSLRLSCAASGRIFGPYAMGWYRQAPGKERELVAVITNSGSTNYADSVKGRFTISRDNAKNSVYLQMNCLKPEDTAVYYCNRFEGGAYGSNFDYWGQGTQVTVSS", "polyreactivity (PSR sort gate)": "high polyreactivity"}, {"sequence": "QVQLVESGGGLVLAGASLRLSCAPSGFIFVRYAMGWYRAAPGKERELVAAISSGGSTKYADSVKGRFTISRDNAKNTVYLQMNSLKPEDTAVYYCAADATPGRGVDYWGQGTQVTVSS", "polyreactivity (PSR sort gate)": "high polyreactivity"}, {"sequence": "QVQLVESGGGLVLAGGSLRLSCAASGFIFDIYAMGCYRQAPGKERELVASITWDDGSTYYADSVKGRFTISRDNAKNTVYLQMNSLNPEDTAVYYCAADFEAGGYSLDYWGHGTQVTVSS", "polyreactivity (PSR sort gate)": "low polyreactivity"}, {"sequence": "QVQLVESGGGLVLAGGSLRLSCAASGFILLYYAMGWYREATGKERELVAAISWTGGRTYYADSVKGRFTISRDNAKNTVYLQMNRLKPEDTAVYYCNTFKFFCRKYGYWGQGTQVTVSS", "polyreactivity (PSR sort gate)": "low polyreactivity"}, {"sequence": "QVQLVESGGGLVLAGGSLRLSCAASGIIFYRNAMGWYRQAPGKERELVAAITSSGGRTYYADSVKGRFTISRDNAKNTVYLQMNSLKPEDTAVYYCAATRMYWKIFYGDGDYWGQGTQVTVST", "polyreactivity (PSR sort gate)": "high polyreactivity"}, {"sequence": "QVQLVESGGGLVLAGGSLRLSCAASGIIFYYYTMGWYRQAPGKERELVAWSGGNTNYADSVKGRFTISRDNAKNTVYLQMNSLIPEDSAVYYCNALAIWSDDWDQWISYADDYWGQGTQVTVSS", "polyreactivity (PSR sort gate)": "low polyreactivity"}, {"sequence": "QVQLVESGGGLVLAGGSLRLSCAASGLIFAVYAMGWYRQAPGKERELVAGISASAASTYYADSVKGRFTISRDNAKNTVYLQMNSLKPEDTAVYYCAAGFYRRGKYDYWGQGTQVTVSS", "polyreactivity (PSR sort gate)": "high polyreactivity"}, {"sequence": "QVQLVESGGGLVLAGGSLRLSCAASGRTFGYYTMGWYRQAPGKERELVAGISSAGSTNYADSVKGRFTLSRDYAKNTVYLQMNSLKPEDTAVYYCAARYQFYRYDSTYYYCGQGTQVTVSS", "polyreactivity (PSR sort gate)": "high polyreactivity"}]}]}
